# According to patent publication KR20140085790A (dated 2014):
# B1: 인간 단일클론항체 mh2F (항 DLL4 항체) (antibody, V domains shown)
# VH: QVQLVQSGAEVKKPGASVKVSCKASGYTFTSYYLHWVRQAPGQGLEWMGIINPSGGSTSFAQKFQGRVTMTRDTSTSTVYMELSSLRSEDTAVYYCARDSAGGTLDVWGQGTMITVSS
# VL: SYELTQPPSVSVAPGKTARITCGGNKIGNKGVHWYQQKPGQAPVLVIYYDKDRPSGIPERFSGSNSGNTATLTISRVEAGDEADYYCQVWDRSTVIFGGGTKLTVLG
# notes: Isolated from a human scFv phage library; In ELISA it was detected with an HRP-conjugated anti-Fab reagent; also called anti-DLL4 antibody
# What was measured:
# [1] = molecular target: T1, 인간 DLL4 단백질 세포외 도메인 (R&D Systems Cat: 1506-D4/CF) (human, UniProt Q9NR61 27-529); assay: SPR (BIACORE T200), DLL4 coated on the chip, antibody injected
# T1 construct: extracellular domain; Bought protein; also called hDLL4-His; human DLL4; not shown: His tag (hDLL4-His)
# [2] = molecular target: T1, 인간 DLL4 단백질 세포외 도메인 (R&D Systems Cat: …); assay: competition ELISA: antibody (2 pM-35 nM) premixed with DLL4 antigen (800 ng/ml), added to coated hNotch-1-hFc; bound DLL4 detected with an HRP anti-His reagent
# T1 sequence (Q9NR61 27-529): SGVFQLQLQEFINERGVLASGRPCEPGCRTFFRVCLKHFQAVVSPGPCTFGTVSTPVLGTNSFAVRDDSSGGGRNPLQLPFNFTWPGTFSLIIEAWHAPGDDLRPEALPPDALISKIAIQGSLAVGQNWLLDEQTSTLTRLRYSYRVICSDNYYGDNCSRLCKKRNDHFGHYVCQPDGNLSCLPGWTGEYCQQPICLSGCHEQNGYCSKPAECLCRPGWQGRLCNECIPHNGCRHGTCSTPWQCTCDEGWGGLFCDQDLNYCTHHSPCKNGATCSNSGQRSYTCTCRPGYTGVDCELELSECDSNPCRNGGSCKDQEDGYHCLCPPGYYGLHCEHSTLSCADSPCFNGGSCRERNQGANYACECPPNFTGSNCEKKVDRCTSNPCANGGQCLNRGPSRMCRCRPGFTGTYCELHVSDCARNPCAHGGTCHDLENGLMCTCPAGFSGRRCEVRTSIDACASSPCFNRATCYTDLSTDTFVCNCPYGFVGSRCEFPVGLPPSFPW
binder,measurement,setting,value
B1,Kd,[1],5.27 nM
same,IC50,[2],1.03 nM
